Assay [1] deals with carbohydrate containing epitope on CD43 and/or CEA as expressed on SU.86.86 pancreatic cancer cells. As to the kind of experiment: flow cytometry on SU.86.86 cells, secondary antibody alone at 1 ug/ml. On the technique in general: A flow cytometer gives signals particle by particle.
Assay [2] concerns the target carbohydrate containing epitope on CD43 and/or CEA as expressed on COLO 205 colorectal cancer cells. Kind of assay: flow cytometry on Colo 205 cells, secondary antibody alone.
The target is the same in assay [3]. As to the kind of experiment: flow cytometry on Colo 205 cells, antibody at 1 ug/ml, R-PE secondary.
Assay [4] has the same target. As to the kind of experiment: flow cytometry on Colo 205 cells, control antibody.
For assay [5], the target named is carbohydrate containing epitope on CD43 and/or CEA as expressed on SU.86.86 pancreatic cancer cells. Kind of assay: cell-based or functional assay.
For assay [6], the target named is carbohydrate containing epitope on CD43 and/or CEA as expressed on COLO 205 colorectal cancer cells. As to the kind of experiment: flow cytometry on Colo 205 cells, antibody at 1 ug/ml, R-PE anti-mouse secondary.
Assay [7] addresses carbohydrate containing epitope on CD43 and/or CEA as expressed on SU.86.86 pancreatic cancer cells. As to the kind of experiment: flow cytometry on SU.86.86 cells, antibody at 1 ug/ml, R-PE anti-mouse secondary.

In assay [1], “R-PE-conjugated goat F(ab')2 anti-mouse IgG(H+L), Southern Biotech, Cat. No.1032-09 (antibody)” displayed an MFI of 6 MFI. The same molecule yielded a background signal (MFI) in assay [2] of 3 MFI.
As for “R-PE-conjugated goat anti-human IgG, Southern Biotech, Cat. No.2040-09 (antibody)”, the background signal (MFI) in assay [2] was 3 MFI.
Consider hIgG1 (control antibody of Table 10), for which the Median Fluorescence Intensity (MFI) in assay [3] is 6 MFI.
For the molecule human IgG (control antibody of FIG. 3), the background signal (MFI) in assay [4] is 5 MFI.
Consider mIgG3 (control antibody of Table 10), for which the Median Fluorescence Intensity (MFI) in assay [3] turned out to be 7 MFI.
mouse IgG (control antibody of FIG. 3): the background signal (MFI) in assay [4] was 4 MFI.

B1: murine 5F1 antibody (m5F1) (antibody, V domains shown)
VH: EVQLQQSGPELVKPGASVRMSCTASGYTFTSYVMHWIKQKPGQGLDWIGYINPYNGGTQYNEKFKGKATLTSDKSSSTAYMELSSLTSEDSAVYYCARRTFPYYFDYWGQGTTLTVSS
VL: DVLMTQTPLSLPVSLGDQASISCRSSQSILHSNGNTYLEWYLQKPGQSPKLLIYKVSNRFSGVPDRFSGSGSGTDFTLKISRVEAEDLGVYYCFQGSHAPLTFGAGTKLELK
In assay [5], B1 displayed a % of Annexin V and/or PI positive cells, SU.86.86 cells, 6 h, m5F1 at 2 ug/ml of 60%; a % of Annexin V and/or PI positive cells, SU.86.86 cells, 6 h, m5F1 at 4 ug/ml of 72%; a % of Annexin V and/or PI positive cells, SU.86.86 cells, 6 h, m5F1 at 8 ug/ml of 78%; a % of Annexin V and/or PI positive cells, SU.86.86 cells, 6 h, m5F1 at 16 ug/ml of 89%. In assay [5], this molecule returned a % of Annexin V and/or PI positive cells, SU.86.86 cells, 6 h, m5F1 at 32 ug/ml of 91%. Besides, in assay [6], the Median Fluorescence Intensity (MFI) was determined as 800 MFI. In assay [7], this molecule displayed an MFI of 131 MFI.

Values taken from patent US20110280888A1.
